Test results published in the supplement of paper PMC9732359.
± gives the uncertainty stated by the source.

Experiment: protein stability index of a GFP-peptide fusion (yeast GPS) (PSI 1-4); higher = more stable; sorted into four equal gates, so the index is relative within each strain
Settings: san1∆
Outline: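 Sequencing reads from sorted gates were used to score each peptide. The library consisted of tiled 17-residue yeast protein peptides fused downstream of GFP on a Cherry-expressing plasmid, pooled and carried in yeast. Mid-log cultures in leucine-free medium were split into four equal gates by GFP/Cherry ratio, and each gate's plasmids were PCR-amplified and Illumina-sequenced. The protein stability index adds up, over all gates, the read frequency multiplied by the gate number.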
Sequence GSNKAQISIIDIWSISK [YML031W/NDC1] has a protein stability index of 2.88 ± 0.054.
GSQIKFIVVPDLLKNAP [SMD3] gave a protein stability index of 1.8 ± 0.055.
Work on GSSALADNKEDVKKPFS [YLR335W/NUP2] yielded a protein stability index of 3.06 ± 0.06.
GSSGGVIRMVVLTAAGV [PRE3] gave a protein stability index of 2.64 ± 0.12.
Work on GSSSIIYYDSYIHLAYS [SSN2] yielded a protein stability index of 2.7 ± 0.068.
Work on GSTLNVSQMVAVVGQQI [RPO31] yielded a protein stability index of 2.84 ± 0.16.
For GSYGSLLRFNGVERLIP [PRE4], the protein stability index was 2.04 ± 0.12.
GTAGGNTFGSSSLFNNS [YJL041W/NSP1] gave a protein stability index of 3.12 ± 0.055.
GTGKTLLAKAVANQTSA [RPT2] showed a protein stability index of 2.72 ± 0.16.
GTIDKLQLELTIEDIAV [RPO31] gave a protein stability index of 2.3 ± 0.053.
GTSLTIQHIAAAMVPFI [CDC53] showed a protein stability index of 2.6 ± 0.066.
Work on GTSQNYGTATADDADIE [MED1] yielded a protein stability index of 3.08 ± 0.058.
With GTVGNSHKTTKEDTVSW [RPL11A] the protein stability index was 3.22 ± 0.069.
GVFDPASYAKYLIDHIK [RPL22A] gave a protein stability index of 3.35 ± 0.16.
In the case of GVITVHNVFSKEQTIQL [RPN14], the protein stability index is reported as 2.95 ± 0.079.
For GVLYQGNIQISEYNFLE [DIS3], the protein stability index was 2.6 ± 0.18.
For GVYKRDNRTKSTTIKNI [SMC4], the protein stability index was 1.33 ± 0.14.
GWFHSHPGYDCWLSNID [RRI1] gave a protein stability index of 2.77 ± 0.074.
With GWYHSGPKLRASDLKIN [RPN8] the protein stability index was 1.59 ± 0.058.
Work on GYGSNKKTKFLSPSGHK [RPL32] yielded a protein stability index of 2.62 ± 0.14.
Sequence GYYVGYKATATGPKQQE [SCL1] has a protein stability index of 3.02 ± 0.12.
Work on HANSVVALTGLLIRSKT [YML031W/NDC1] yielded a protein stability index of 1.83 ± 0.052.
In the case of HDAPRGLFPFESYKPSV [SWI3], the protein stability index is reported as 3.15 ± 0.11.
In the case of HDELIDSIPRDVAYLLK [YGL172W/NUP49], the protein stability index is reported as 2.89 ± 0.055.
Sequence HDFLFNTIIRDGSKMLK [RPN14] has a protein stability index of 3.03 ± 0.15.
Work on HDISKTETSNEDEDEDD [SNU114] yielded a protein stability index of 2.98 ± 0.039.
In the case of HDLLQIIHFHSHPEKRM [SSN3], the protein stability index is reported as 2.65 ± 0.046.
For HEKIEDEDEDNDLDEDD [RPN4], the protein stability index was 3.55 ± 0.086.
Work on HELSRAELEELEEFEFK [SMD2] yielded a protein stability index of 3.42 ± 0.059.
HFIQKLHTARKILVLTG [SIR2] gave a protein stability index of 1.1 ± 0.15.
With HGAFMDIIWLQRDLGLY [RRP6] the protein stability index was 1.23 ± 0.069.
HGGSRYATKDGVAHLLN [QCR2] gave a protein stability index of 3.3 ± 0.1.
HGKPTKGSSLASAASEA [SSN8] gave a protein stability index of 2.19 ± 0.088.
Work on HGMDFTTDKLRSMVRKW [RPS1A] yielded a protein stability index of 2.48 ± 0.19.
Sequence HGYFLQDKEKIDNLKDT [ITC1] has a protein stability index of 3.24 ± 0.057.
HHELIKVKHDSQPFIKF [SSN2] gave a protein stability index of 2.86 ± 0.11.
For HHIHHFEKKELQEKFLN [IRR1], the protein stability index was 1.87 ± 0.068.
In the case of HHNDISNDSQSHFDYNT [YCG1], the protein stability index is reported as 2.49 ± 0.14.
In the case of HIAHTLPEKVNFRTMQQ [SSN2], the protein stability index is reported as 2.83 ± 0.083.
Work on HINKKSQLDLFLRTMKL [GRR1] yielded a protein stability index of 1.21 ± 0.11.
Work on HKQELQDLILDLKKKLN [SMC4] yielded a protein stability index of 2.31 ± 0.062.
HKQGSSYVAVLGMGKAV [POP7] gave a protein stability index of 1.66 ± 0.082.

Same assay, conditions: ubr1∆
Sequence GSNKAQISIIDIWSISK [YML031W/NDC1] has a protein stability index of 2.97 ± 0.048.
With GSQIKFIVVPDLLKNAP [SMD3] the protein stability index was 1.8 ± 0.038.
For GSSALADNKEDVKKPFS [YLR335W/NUP2], the protein stability index was 3.21 ± 0.062.
In the case of GSSGGVIRMVVLTAAGV [PRE3], the protein stability index is reported as 1.74 ± 0.049.
Work on GSSSIIYYDSYIHLAYS [SSN2] yielded a protein stability index of 2.79 ± 0.28.
GSTLNVSQMVAVVGQQI [RPO31] gave a protein stability index of 2.82 ± 0.15.
Work on GSYGSLLRFNGVERLIP [PRE4] yielded a protein stability index of 2.22 ± 0.12.
Work on GTAGGNTFGSSSLFNNS [YJL041W/NSP1] yielded a protein stability index of 3.21 ± 0.059.
Sequence GTGKTLLAKAVANQTSA [RPT2] has a protein stability index of 1.89 ± 0.092.
Work on GTIDKLQLELTIEDIAV [RPO31] yielded a protein stability index of 2.54 ± 0.046.
With GTSLTIQHIAAAMVPFI [CDC53] the protein stability index was 3.03 ± 0.043.
Sequence GTSQNYGTATADDADIE [MED1] has a protein stability index of 3.24 ± 0.061.
GTVGNSHKTTKEDTVSW [RPL11A] gave a protein stability index of 3.12 ± 0.18.
Work on GVITVHNVFSKEQTIQL [RPN14] yielded a protein stability index of 3.12 ± 0.14.
GVLYQGNIQISEYNFLE [DIS3] showed a protein stability index of 2.96 ± 0.28.
Work on GVYKRDNRTKSTTIKNI [SMC4] yielded a protein stability index of 1.23 ± 0.075.
GWFHSHPGYDCWLSNID [RRI1] gave a protein stability index of 2.81 ± 0.071.
With GWYHSGPKLRASDLKIN [RPN8] the protein stability index was 2.06 ± 0.035.
GYENGMLAQWDLRSPEC [RPN14] gave a protein stability index of 3.65 ± 0.16.
With GYGSNKKTKFLSPSGHK [RPL32] the protein stability index was 1.63 ± 0.092.
Sequence GYYVGYKATATGPKQQE [SCL1] has a protein stability index of 3.25 ± 0.14.
Work on HANSVVALTGLLIRSKT [YML031W/NDC1] yielded a protein stability index of 2.35 ± 0.033.
With HDAPRGLFPFESYKPSV [SWI3] the protein stability index was 3.1 ± 0.079.
HDELIDSIPRDVAYLLK [YGL172W/NUP49] showed a protein stability index of 3.05 ± 0.095.
HDFLFNTIIRDGSKMLK [RPN14] gave a protein stability index of 1.38 ± 0.068.
Work on HDISKTETSNEDEDEDD [SNU114] yielded a protein stability index of 3.08 ± 0.037.
Sequence HDLLQIIHFHSHPEKRM [SSN3] has a protein stability index of 2.79 ± 0.039.
With HEKIEDEDEDNDLDEDD [RPN4] the protein stability index was 3.45 ± 0.11.
For HELSRAELEELEEFEFK [SMD2], the protein stability index was 3.45 ± 0.055.
With HETLARSSEEINSDNQN [RPN3] the protein stability index was 3.16 ± 0.19.
For HFIQKLHTARKILVLTG [SIR2], the protein stability index was 1.66 ± 0.21.
Sequence HGAFMDIIWLQRDLGLY [RRP6] has a protein stability index of 1.46 ± 0.032.
Work on HGGSRYATKDGVAHLLN [QCR2] yielded a protein stability index of 3.09 ± 0.072.
Work on HGKPTKGSSLASAASEA [SSN8] yielded a protein stability index of 2.73 ± 0.032.
Work on HGMDFTTDKLRSMVRKW [RPS1A] yielded a protein stability index of 2.9 ± 0.064.
Work on HGYFLQDKEKIDNLKDT [ITC1] yielded a protein stability index of 3.42 ± 0.057.
In the case of HHELIKVKHDSQPFIKF [SSN2], the protein stability index is reported as 2.88 ± 0.06.
For HHIHHFEKKELQEKFLN [IRR1], the protein stability index was 1.56 ± 0.037.
Sequence HHNDISNDSQSHFDYNT [YCG1] has a protein stability index of 2.39 ± 0.16.
Sequence HIAHTLPEKVNFRTMQQ [SSN2] has a protein stability index of 2.75 ± 0.071.
HINKKSQLDLFLRTMKL [GRR1] gave a protein stability index of 2.02 ± 0.1.
In the case of HKQELQDLILDLKKKLN [SMC4], the protein stability index is reported as 1.75 ± 0.058.
Work on HKQGSSYVAVLGMGKAV [POP7] yielded a protein stability index of 1.86 ± 0.062.
